This assay has as its target growth factor receptor-bound protein 2 (Grb2), recombinant (human, UniProt P62993 1-217). Description: SPR.

In general, Kd refers to a measure of binding affinity in units of concentration.

Chain of growth factor receptor-bound protein 2 (Grb2), recombinant (P62993 whole entry): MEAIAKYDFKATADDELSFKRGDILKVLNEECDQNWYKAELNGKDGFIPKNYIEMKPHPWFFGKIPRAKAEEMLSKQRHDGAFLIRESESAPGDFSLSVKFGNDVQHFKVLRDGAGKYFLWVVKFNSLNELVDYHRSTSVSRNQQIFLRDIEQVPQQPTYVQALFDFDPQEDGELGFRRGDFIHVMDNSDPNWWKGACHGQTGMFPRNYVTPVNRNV

On to YEVPPPVPPRRRGSC [SH3-binding peptide (YEVPPPVPPRRR)], for which the Kd turned out to be 7.5 ± 5.7 mM.

The record behind these values is paper PMC3390916 (Chembiochem, 2011).
